# Source: US20240368233A1 (University of Washington, published 2024)
# T1: DF202
# T1 construct: Bivalent connector
# T1 chain: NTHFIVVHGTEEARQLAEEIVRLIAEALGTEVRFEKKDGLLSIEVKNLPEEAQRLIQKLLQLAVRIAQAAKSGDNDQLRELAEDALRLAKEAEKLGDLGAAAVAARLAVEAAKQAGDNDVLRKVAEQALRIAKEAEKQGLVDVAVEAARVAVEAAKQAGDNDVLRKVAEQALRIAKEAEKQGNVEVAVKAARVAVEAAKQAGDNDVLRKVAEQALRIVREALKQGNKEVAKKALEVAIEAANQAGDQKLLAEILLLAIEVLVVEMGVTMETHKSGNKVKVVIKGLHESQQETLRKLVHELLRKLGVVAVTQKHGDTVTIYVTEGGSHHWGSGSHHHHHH
# T2: LHD101 chainA
# T2 construct: also called LHD101A
# T2 chain: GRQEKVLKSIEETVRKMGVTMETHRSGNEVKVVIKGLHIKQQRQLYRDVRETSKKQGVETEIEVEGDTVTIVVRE
# T3: 274B53
# T3 construct: also called LHD274B DHR53 stop
# T3 chain: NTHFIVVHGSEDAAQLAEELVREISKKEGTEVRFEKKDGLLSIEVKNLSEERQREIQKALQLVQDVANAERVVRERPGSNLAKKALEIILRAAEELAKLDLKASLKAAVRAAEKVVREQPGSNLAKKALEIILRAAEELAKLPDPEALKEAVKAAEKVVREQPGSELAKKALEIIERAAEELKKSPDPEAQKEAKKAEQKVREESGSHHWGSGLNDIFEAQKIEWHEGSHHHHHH
# T4: LHD101 chainB
# T4 construct: also called LHD101B
# T4 chain: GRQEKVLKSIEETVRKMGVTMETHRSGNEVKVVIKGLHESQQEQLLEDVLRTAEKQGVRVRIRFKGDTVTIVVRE
# T5: 101B62
# T5 construct: also called LHD101B62
# T5 chain: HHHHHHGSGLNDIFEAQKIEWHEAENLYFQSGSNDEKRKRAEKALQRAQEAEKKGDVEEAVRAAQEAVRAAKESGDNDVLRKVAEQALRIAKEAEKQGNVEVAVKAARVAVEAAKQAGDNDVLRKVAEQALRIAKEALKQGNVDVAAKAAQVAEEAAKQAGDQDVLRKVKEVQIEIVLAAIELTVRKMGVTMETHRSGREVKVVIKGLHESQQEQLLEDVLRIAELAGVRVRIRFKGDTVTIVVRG
# B1: 101B14 (designed binder)
# single chain, LHD101 chain B fused to DHR14: HHHHHHGSGLNDIFEAQKIEWHEAENLYFQSGSSEEVNERVKQLAEKAKEATDKEEVIEIVKELAELAKQSTDSELVNEIVKQLAEVAKEATDKELVIYIVKILAELAKQSTDSELVNEIVKQLAEVAKEATDKELVIYIVDILLKLAEQADDDELVEEIRKQLEEVAKEATDKELVEIIKAVIVLLVIISVVARMGVTMEIHKSGREVKVVIKGLHESQQEQLLEAVLRAAEEAGVRVRIRFKGDTVTIVVRG
# notes: also called LHD101 B14
# Assays:
# [1] = biological target: the molecule itself; assay: SEC titration of the protomer alone at several injection concentrations (Superdex 200, normalised A230); self-association
# [2] = biological target: T1, DF202; assay: SEC of mixed components; trimer listed in Table 6
# Procedure: (§1) Complexes and individual components were diluted in 20 mM Tris pH 8.0, 100 mM NaCl. After o/n equilibration of the mixtures at room temperature or 4 degrees C., 500 ul of sample was injected onto a Superdex™ 200 10/300 increase GL (dimers, linear assemblies) or Superose™ 6 increase 10/300 GL (symmetric assemblies) (all columns from GE healthcare) using the absorbance at 230 nm or 473 nm (for GFP tagged components) as read-out. Dimers were mixed at monomer concentrations of 5 μM or higher. Trimer and ABCD tetramer mixtures contained 5 μM of the bivalent connector, and 7.5 μM of each terminal cap (lower absolute concentrations with the same ratios were used for some trimers). ABCA tetramer mixtures contained 5 μM per bivalent connector and 15 μM terminal cap. The hexamer mixture contained 3 μM of components C and D, 3.6 μM of B and E, and 4.4 μM of A and F. The branched assembly shown in FIG. 4A contained 2.8 μM of the trivalent connector and 4 μM of each cap. For the exchange experiment shown in FIG. 5A, the ABC trimer was preincubated at concentrations of 6 μM B and 9 μM each of A and C. C′ was then added to reach a final concentration of 2 μM B, 3 μM each of A and C, and 6 μM C′.
# [3] = biological target: T2, LHD101 chainA; assay: BLI steady-state titration, biotinylated unfused LHD101A on a streptavidin sensor
# Text: FIG. 8A-E. Characterization LHD binding in vitro. A: Designed models heterodimers (top row). Middle row, SEC binding experiments performed on a Superdex™ 75 column. Bottom row, biolayer interferometry kinetic binding traces. […] C: Kinetic binding traces from BLI. Equilibrium responses were used to fit equilibrium binding curves D: Equilibrium binding curves of LHDs from biolayer interferometry binding assays with data from C. […] Biotinylated unfused protomers were immobilized on streptavidin coated biosensors.
# Biolayer interferometry experiments were performed on an OctetRED96 BLI system (ForteBio, Menlo Park, CA). Streptavidin coated biosensors were first equilibrated for at least 10 minutes in Octet buffer (10 mM HEPES pH 7.4, 150 mM NaCl, 3 mM EDTA, 0.05% Surfactant P20) supplemented with 1 mg/ml Bovine Serum Albumin (SigmaAldrich). Enzymatically biotinylated designs were immobilized onto the biosensors by dipping the biosensors into a solution with 10-50 nM protein for 30-120 s. This was followed by dipping in fresh octet buffer to establish a baseline for 120 s. Titration experiments were performed at 25° C. while rotating at 1,000 r.p.m. […]
# [4] = biological target: T3, 274B53; assay: SEC binding assay (Superdex 200, normalised A230) of A, B and the mixture AB
# Procedure: as §1
# [5] = biological target: T4, LHD101 chainB; assay: BLI, dissociation rate constant (kdis)
# Procedure: Biolayer interferometry experiments were performed on an OctetRED96 BLI system (ForteBio, Menlo Park, CA). Streptavidin coated biosensors were first equilibrated for at least 10 minutes in Octet buffer (10 mM HEPES pH 7.4, 150 mM NaCl, 3 mM EDTA, 0.05% Surfactant P20) supplemented with 1 mg/ml Bovine Serum Albumin (SigmaAldrich). Enzymatically biotinylated designs were immobilized onto the biosensors by dipping the biosensors into a solution with 10-50 nM protein for 30-120 s. This was followed by dipping in fresh octet buffer to establish a baseline for 120 s. Titration experiments were performed at 25° C. while rotating at 1,000 r.p.m. Association of designs was allowed by dipping biosensors in solutions containing designed protein diluted in octet buffer until equilibrium was approached followed by dissociation by dipping the biosensors into fresh buffer solution in order to monitor the dissociation kinetics. Steady-state and global kinetic fits were performed using the manufacturer's software (Data Analysis 9.1) assuming a 1:1 binding model.
# [6] = biological target: B1; assay: SEC binding assay (Superdex 200, normalised A230) of A, B and the mixture AB
# Procedure: as §1
# [7] = biological target: T5, 101B62; assay: as above
# Procedure: as §1
Binder,binding result [1],koff [5] [s⁻¹],other results
B1,no binding (tested: 114.0 uM),–,–
202B57 (designed binder) GSSVEFHIVNISEKAAQIIERAVRAISKELGTEVRFEKRDGELTIEVKNLHERRLQEILLLIEAVKLLLLALKAVKEDPSTDALRAVLEAVRFASEVAKRVENPEAVAVLAELVIELALEAVKEDPSTDALRAVLEAVRLASEVAKRVTDADKALKIAKLVIELALEAVKEDPSEEAKRAVEEAKRLAEEVSKRVTDPELSEKIRQLVKELEEEAQKEDPSGSHHWGSGLNDIFEAQKIEWHEGSHHHHHH,–,–,binding result [2]: binds
"101B4 (designed binder, also called LHD101B4) HHHHHHGSGLNDIFEAQKIEWHEAENLYFQSGSYEDECEEKARRVAEKVERLKRSGTSEDEIAEEVAREISEVIRTLKESGSSYEVICECVARIVAEIVEALKRSGTSEDEIAEIVARVISEVIRTLKESGSSYEVICECVARIVAEIVEALKRSGTSEEEIAEIVARVIQEVIRTLKESGSSYEVIRECLRRILEEVIEALKRSGVDSSEIVLIIIKIAVAVMGVTMEEHRSGNEVKVVIKGLHESQQEELLELVLRAAELAGVRVRIRFKGDTVTIVVRG",–,–,binding result [3]: binds
"202B64 (designed binder, also called LHD202 B64) single chain, LHD202 chain B fused to DHR64: GSSVEFHIVNIDEDVAQLIELAVKLISKEEGTEVRFEKRDGELTIEVKNLHEKDLQLILELIEALLLIARAIELLRQAKEKGSEEDLEKALRTAEESARRLKKVLEKAEKLGNLGVALAAVAGVVLVAELLLRIAKESGSEEALERALRVAEEAARLAKRVLELAEKLGDAEAALLAVELVVRVAELLLRIAKESGSEEALERALRVAEEAARLAKRVLELAEKQGDAEVARRAVELVKRVAELLERIARESGSEEAKERAERVREEARELQERVKELREREGDGSHHWGSGLNDIFEAQKIEWHEGSHHHHHH",binds,–,–
"29B53 (designed binder, also called LHD29B53) SSIFLLSNVDESARQLAEELVREISKKEGTEVRFEKDDGFLTIEVKNLSEERLREIARALQLIVDVANAERVVRERPGSNLAKKALEIILRAAEELAKLPLKASLKAAVIAAELVVREQPGSNLAKKALEIILRAAEELAKLPDPEALKEAVKAAEKVVREQPGSELAKKALEIIERAAEELKKSPDPEAQKEAKKAEQKVREERPGSSGSHHHHHH",binds,–,–
"LHD274 A76 (designed binder) single chain, LHD274 chain A fused to DHR76: GSTTNFHLINGSEEARQVIEEIVEIIARLAGTEVHFEKSDGTLEIRVKNLHEELERLIKELIELALLLQLAKKEAIEEAKKQGNPELVEWVARAAEVVKEVLRVAAEAAGAGNPDLAKAAAELARAVIEAIEEAVKQGNAELVEWVARAAKVAAEVIKVAIQAEKEGNRDLFRAALELVRAVIEAIEEAVKQGNAELVERVARLAKKAAELIKRAIRAEKEGNRDERREALERVREVIERIEELVRQGNGSHHWGSGLNDIFEAQKIEWHEGSHHHHHH",–,–,binding result [4]: binds
LHD101A V69Q (designed binder) GRQEKVLKSIEETVRKMGVTMETHRSGNEVKVVIKGLHIKQQRQLYRDVRETSKKQGVETEIEVEGDTQTIVVRE,–,0.00653,–
LHD101A_T70W (designed binder) GRQEKVLKSIEETVRKMGVTMETHRSGNEVKVVIKGLHIKQQRQLYRDVRETSKKQGVETEIEVEGDTVWIVVRE,–,0.0102,–
LHD101A_Q42M (designed binder) GRQEKVLKSIEETVRKMGVTMETHRSGNEVKVVIKGLHIKQMRQLYRDVRETSKKQGVETEIEVEGDTVTIVVRE,–,0.00941,–
LHD101A_R43V (designed binder) GRQEKVLKSIEETVRKMGVTMETHRSGNEVKVVIKGLHIKQQVQLYRDVRETSKKQGVETEIEVEGDTVTIVVRE,–,0.0113,–
"LHD101 A10 (designed binder) single chain, LHD101 chain A fused to DHR10: HHHHHHGSGLNDIFEAQKIEWHEAENLYFQSGSSSEKEELRERLVKIVVENAKRKGDDTEEAREAAREAFELVREAAERAGIDSSEVLELAIRLIKEVVENAQREGYDISEAARAAAEAFKRVAEAAKRAGITSSEVLELAIILIKLVVELAQRKGYDISEAARAAAELFKRLAEALKRAGKTSERALALLILLLAIEILVRDMGVTMETHPSGNEVKVVIKGLHIKQQRQLYRLVREAAKLLGVEVEIEVEGDTVTIVVRGGS",–,–,binding result [6]: binds; binding result [7]: binds
"278B (designed binder, also called LHD278 B; LHD278 chainB) GGSTVTFDITNIDWKSAELIMLAVYDIAQQEGTDVTFSFKEGELQITVKNLHEKWKRLIEMLIEACRRAQDPDPESLKEAVRIAEELVRLHPGNPLARAALKVILTAAEELAKLPDPEALKEAVKAAEKVVREQPGSNLAKKALEIILRAAEELAKLPDPEALKEAVKAAEKVVREQPGSELAKKALEIIERAAEELKKSPDPEAQKEAKKAEQKVREERPGSGGSGSHHWGSGSHHHHHH",binds,–,–
